Laboratory results from patent US20230037815A1.

Target: cynomolgus CD19 (cynomolgus)
Assay: Octet HTX (ForteBio), IgG on AHC sensor, 1:1 fit

| Binder | Kd [nM] | koff [s⁻¹] |
| --- | --- | --- |
| CNG-CD19-102 (antibody, V domains shown) VH: QVQLVQSGAEVKKPGASVKVSCKASGYEFTDYIMHWVRQAPGQGLEWMGYINPYNDGSKYTEKFQPRVTMTSDTSISTAYMELSRLRSDDTAVYYCARGTYYYGPQLFDYWGQGTTVTVSS VL: DIVMTQTPLSLSVTPGQPASISCKSSQSLETSTGTTYLNWYLQKPGQSPQLLIYRVSKRFSGVPDRFSGSGSGTDFTLKISRVEAEDVGVYYCLQLLEDPYTFGQGTKLEIK | 12.1 | 0.00218 |
| CNG-CD19-104 (antibody, V domains shown) VH: QVQLVQSGAEVKKPGASVKVSCKASGYDFTDYIVHWVRQAPGQGLEWMGYINPYNDGSKYTEKFQGRVTMTSDTSISTAYMELSRLRSDDTAVYYCARGTYYYGPELFDYWGQGTTVTVSS VL: DIVMTQTPLSLSVTPGQPASISCKSGQSLETSTGTTYLNWYLQKPGQSPQLLIYRVSRRFSGVPDRFSGSGSGTDFTLKISRVEAEDVGVYYCLQLLEDPYTFGQGTKLEIK | 5.83 | 0.00148 |
| CNG-CD19-101 (antibody, V domains shown) VH: QVQLVQSGAEVKKPGASVKVSCKASGYDFTDYIMHWVRQAPGQGLEWMGYINPYNDGSKYTDKFQERVTMTSDTSISTAYMELSRLRSDDTAVYYCARGTYYYGPELFDYWGQGTTVTVSS VL: DIVMTQTPLSLSVTPGQPASISCKSSQSLETTTGTTYLNWYLQKPGQSPQLLIYRASKRFSGVPDRFSGSGSGTDFTLKISRVEAEDVGVYYCLQLLEDPYTFGQGTKLEIK | 9.91 | 0.00233 |
| CNG-CD19-110 (antibody, V domains shown) VH: QVQLVQSGAEVKKPGASVKVSCKASGYTFTDYIMHWVRQAPGQGLEWMGYINPYNDGSKYTEKFQGRVTMTSDTSISTAYMELSRLRSDDTAVYYCARGTYYYGPQLFDYWGQGTTVTVSS VL: DIVMTQTPLSLSVTPGQPASISCKSSQSLETSTGTTYLNWYLQKPGQSPQLLIYRSSKRFSGVPDRFSGSGSGTDFTLKISRVEAEDVGVYYCLQLLEDPPTFGQGTKLEIK | 6.17 | 0.00164 |
| CNG-CD19-105 (antibody, V domains shown) VH: QVQLVQSGAEVKKPGASVKVSCKASGYEFTDYIMHWVRQAPGQGLEWMGYINPYNDGSKYTEKFEGRVTMTSDTSISTAYMELSRLRSDDTAVYYCARGTYYYGPELFDYWGQGTTVTVSS VL: DIVMTQTPLSLSVTPGQPASISCKSSQRLETSTGTTYLNWYLQKPGQSPQLLIYRVSRRFSGVPDRFSGSGSGTDFTLKISRVEAEDVGVYYCLQLLEDPPTFGQGTKLEIK | 2.24 | 0.000679 |
| CNG-CD19-103 (antibody, V domains shown) VH: QVQLVQSGAEVKKPGASVKVSCKASGYTFTDYIMHWVRQAPGQGLEWMGYINPYNDGSKYTEKFQGRVTMTSDTSISTAYMELSRLRSDDTAVYYCARGTYYYGPQLFDYWGQGTTVTVSS VL: DIVMTQTPLSLSVTPGQPASISCKSSQSLETATGTTYLNWYLQKPGQSPQLLIYRVSRRFSGVPDRFSGSGSGTDFTLKISRVEAEDVGVYYCLQLLEDPYSFGQGTKLEIK | 4.69 | 0.00109 |
| CNG-CD19-106 (antibody, V domains shown) VH: QVQLVQSGAEVKKPGASVKVSCKASGYDFTDYIMHWVRQAPGQGLEWMGYINPYNDGSEYTEKFQGRVTMTSDTSISTAYMELSRLRSDDTAVYYCARGTYYYGPQLFDYWGQGTTVTVSS VL: DIVMTQTPLSLSVTPGQPASISCKSSQSLETATGTTYLNWYLQKPGQSPQLLIYRVSRRFSGVPDRFSGSGSGTDFTLKISRVEAEDVGVYYCLQLLEDPYTFGQGTKLEIK | 3.2 | 0.00123 |
| CNG-CD19-107 (antibody, V domains shown) VH: QVQLVQSGAEVKKPGASVKVSCKASGYDFTDYIMHWVRQAPGQGLEWMGYINPYNDGSKYTEKFQHRVTMTSDTSISTAYMELSRLRSDDTAVYYCARGTYYYGPQLFDYWGQGTTVTVSS VL: DIVMTQTPLSLSVTPGQPASISCKSSQSLETSTGTTYLNWYLQKPGQSPQLLIYRVSRRFSGVPDRFSGSGSGTDFTLKISRVEAEDVGVYYCLQLLEDPYTFGQGTKLEIK | 5.64 | 0.00129 |
| CNG-CD19-109 (antibody, V domains shown) VH: QVQLVQSGAEVKKPGASVKVSCKASGYDFTDYIVHWVRQAPGQGLEWMGYINPYNDGSLYTEKFQGRVTMTSDTSISTAYMELSRLRSDDTAVYYCARGTYYYGPQLFDYWGQGTTVTVSS VL: DIVMTQTPLSLSVTPGQPASISCKSSQQLETSTGTTYLNWYLQKPGQSPQLLIYRASKRFSGVPDRFSGSGSGTDFTLKISRVEAEDVGVYYCLQLLEDPYSFGQGTKLEIK | 4.03 | 0.00131 |
| CNG-CD19-1 (antibody, V domains shown) VH: QVQLVQSGAEVKKPGASVKVSCKASGYTFTDYIMHWVRQAPGQGLEWMGYINPYNDGSKYTEKFQGRVTMTSDTSISTAYMELSRLRSDDTAVYYCARGTYYYGPQLFDYWGQGTTVTVSS VL: DIVMTQTPLSLSVTPGQPASISCKSSQSLETSTGTTYLNWYLQKPGQSPQLLIYRVSKRFSGVPDRFSGSGSGTDFTLKISRVEAEDVGVYYCLQLLEDPYTFGQGTKLEIK | 9.39 | 0.00191 |
| CNG-CD19-108 (antibody, V domains shown) VH: QVQLVQSGAEVKKPGASVKVSCKASGYDFTDYIVHWVRQAPGQGLEWMGYINPYNDGSKYTEKFQGRVTMTSDTSISTAYMELSRLRSDDTAVYYCARGTYYYGPQLFDYWGQGTTVTVSS VL: DIVMTQTPLSLSVTPGQPASISCKSSQSLETVTGTTYLNWYLQKPGQSPQLLIYRVSKRFSGVPDRFSGSGSGTDFTLKISRVEAEDVGVYYCLQLLEDPPTFGQGTKLEIK | 2.25 | 0.00065 |
| CNG-CD19-703 (antibody, V domains shown) VH: QVQLQESGPGLVKPSQTLSLTCTVSGGSISTSTMGVGWIRQHPGKGLEWIGFIWWDDDKRYNPNLKSRVTMSVDTSKNQFSLKLSSVTAADTAVYYCARMELWSYYFEYWGQGTLVTVSS VL: EIVLTQSPATLSLSPGERATLSCSASSSVSYMHWYQQKPGQAPRLLIYDTSKLASGIPARFSGSGSGTDFTLTISSLEPEDFAVYYCFQGSVYPFTFGQGTKLEIK | 2.54 | 0.000352 |
| CNG-CD19-704 (antibody, V domains shown) VH: QVQLQESGPGLVKPSQTLSLTCTVSGGSIASGMGVGWIRQHPGKGLEWIGHIWWDDDKRYNPALKSRVTISVDTSKNQFSLKLSSVTAADTAVYYCARMELWSYYFDGWGQGTLVTVSS VL: EIVLTQSPATLSLSPGERATLSCSASSSVSYMHWYQQKPGQAPRLLIYDTSKLASGIPARFSGSGSGTDFTLTISSLEPEDFAVYYCFQGSVYPFTFGQGTKLEIK | 1.24 | 0.000194 |
| CNG-CD19-705 (antibody, V domains shown) VH: QVQLQESGPGLVKPSQTLSLTCTVSGGSISTSGMGVGWIRQHPGKGLEWIGHIWWDDDKRYNPALKSRVTISVDTSKNQFSLKLSSVTAADTAVYYCARMELWSYYFDYWGQGTLVTVSS VL: EIVLTQSPATLSLSPGERATLSCSASSSVGYMHWYQQKPGQAPRLLIYDTSSLASGIPARFSGSGSGTDFTLTISSLEPEDFAVYYCFQGSVYPFTFGQGTKLEIK | 6.02 | 0.000837 |
| CNG-CD19-707 (antibody, V domains shown) VH: QVQLQESGPGLVKPSQTLSLTCTVSGGSISTSTMGVGWIRQHPGKGLEWIGFIWWDDDKRYNPNLKSRVTMSVDTSKNQFSLKLSSVTAADTAVYYCARMELWSYYFDPWGQGTLVTVSS VL: EIVLTQSPATLSLSPGERATLSCSASSSVGYMHWYQQKPGQAPRLLIYDTSKLASGIPARFSGSGSGTDFTLTISSLEPEDFAVYYCFQGSVYPFTFGQGTKLEIK | 0.738 | 0.000207 |
| CNG-CD19-7 (antibody, V domains shown) VH: QVQLQESGPGLVKPSQTLSLTCTVSGGSISTSGMGVGWIRQHPGKGLEWIGHIWWDDDKRYNPALKSRVTISVDTSKNQFSLKLSSVTAADTAVYYCARMELWSYYFDYWGQGTLVTVSS VL: EIVLTQSPATLSLSPGERATLSCSASSSVSYMHWYQQKPGQAPRLLIYDTSKLASGIPARFSGSGSGTDFTLTISSLEPEDFAVYYCFQGSVYPFTFGQGTKLEIK | 8.43 | 0.000832 |
| CNG-CD19-706 (antibody, V domains shown) VH: QVQLQESGPGLVKPSQTLSLTCTVSGGSIASGMGVSWIRQHPGKGLEWIGHIWWDDDKRYNPALKSRVTISVDTSKNQFSLKLSSVTAADTAVYYCARMELWSYYFDPWGQGTLVTVSS VL: EIVLTQSPATLSLSPGERATLSCSASSSVGYMHWYQQKPGQAPRLLIYDTSKLASGIPARFSGSGSGTDFTLTISSLEPEDFAVYYCFQGSVYPFTFGQGTKLEIK | 0.372 | 0.00012 |
| CNG-CD19-710 (antibody, V domains shown) VH: QVQLQESGPGLVKPSQTLSLTCTVSGVSISTSSMGVGWIRQHPGKGLEWIGHAWWDDDKRYNPALKSRVTISVDTSKNQFSLKLSSVTAADTAVYYCARMELWSYYFDPWGQGTLVTVSS VL: EIVLTQSPATLSLSPGERATLSCSASSSFSYMHWYQQKPGQAPRLLIYDTSKLASGIPARFSGSGSGTDFTLTISSLEPEDFAVYYCFQGSVYPFTFGQGTKLEIK | 1.54 | 0.000328 |
| CNG-CD19-708 (antibody, V domains shown) VH: QVQLQESGPGLVKPSQTLSLTCTVSGGSISTSTMGVGWIRQHPGKGLEWIGFIWWDDDKRYNPNLKSRVTMSVDTSKNQFSLKLSSVTAADTAVYYCARMELWSYYFDPWGQGTLVTVSS VL: EIVLTQSPATLSLSPGERATLSCSASSSVGYMHWYQQKPGQAPRLLIYDTSKLSSGIPARFSGSGSGTDFTLTISSLEPEDFAVYYCFQGSVYPFTFGQGTKLEIK | 1.02 | 0.000223 |
| CNG-CD19-709 (antibody, V domains shown) VH: QVQLQESGPGLVKPSQTLSLTCTVSGGSISTSTMGVGWIRQHPGKGLEWIGFIWWDDDKRYNPNLKSRVTMSVDTSKNQFSLKLSSVTAADTAVYYCARMELWSYYFDPWGQGTLVTVSS VL: EIVLTQSPATLSLSPGERATLSCSASSSVGYMHWYQQKPGQAPRLLIYDTSKLAFGIPARFSGSGSGTDFTLTISSLEPEDFAVYYCFQGSVYPFTFGQGTKLEIK | 0.639 | 0.000168 |
| CNG-CD19-701 (antibody, V domains shown) VH: QVQLQESGPGLVKPSQTLSLTCTVSGGSISTSTMGVGWIRQHPGKGLEWIGFIWWDDDKRYNPNLKSRVTMSVDTSKNQFSLKLSSVTAADTAVYYCARMELWSYYFDYWGQGTLVTVSS VL: EIVLTQSPATLSLSPGERATLSCSASSSVGYMHWYQQKPGQAPRLLIYDTSKLASGIPARFSGSGSGTDFTLTISSLEPEDFAVYYCFQGSVYPFTFGQGTKLEIK | 0.668 | 0.000168 |
